Assay results from article PMC9482650, “Quantitative fragmentomics allow affinity mapping of interactomes” (Nature Communications, 2022).

How the values were obtained:
Test in all cases: holdup assay
Set-up in all cases: key: below the threshold = too weak to quantify, mostly under pKd 3.1 to 4
Conditions in all cases: plain residues with an end cap or a label only (N-terminal biotin on a linker: ado-ado)
APBA2_1, Q99767 = molecular target: T1, APBA2_1, Q99767
T1 sequence (Q99767 563-664, limits assumed, looked up): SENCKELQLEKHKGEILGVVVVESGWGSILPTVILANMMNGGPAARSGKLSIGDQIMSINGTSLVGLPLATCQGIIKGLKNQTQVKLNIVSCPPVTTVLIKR

ARHGEF12, Q9NZN5-2 = molecular target: ARHGEF12, Q9NZN5-2
Sequence of ARHGEF12, Q9NZN5-2 (Q9NZN5 other isoform, or with tags, fused parts or gaps): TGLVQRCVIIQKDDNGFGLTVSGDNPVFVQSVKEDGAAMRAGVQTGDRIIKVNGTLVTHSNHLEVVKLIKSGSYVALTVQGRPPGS

CASK, O14936 = molecular target: CASK, O14936
Sequence of CASK, O14936 (O14936 487-570): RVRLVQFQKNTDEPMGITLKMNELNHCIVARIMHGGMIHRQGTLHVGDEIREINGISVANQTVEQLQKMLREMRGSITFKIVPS

DLG3_1, Q92796 = molecular target: T2, DLG3_1, Q92796
T2 sequence (Q92796 125-227, limits assumed, looked up): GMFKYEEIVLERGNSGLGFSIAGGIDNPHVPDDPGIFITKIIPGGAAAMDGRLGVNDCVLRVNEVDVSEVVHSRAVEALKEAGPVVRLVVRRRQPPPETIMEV

DLG3_2, Q92796 = molecular target: T3, DLG3_2, Q92796
T3 sequence (Q92796 221-321, limits assumed, looked up): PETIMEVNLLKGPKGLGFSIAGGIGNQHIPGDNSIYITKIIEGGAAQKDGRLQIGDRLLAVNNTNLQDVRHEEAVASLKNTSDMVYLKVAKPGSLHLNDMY

DLG5_1, Q8TDM6 = molecular target: DLG5_1, Q8TDM6
Sequence of DLG5_1, Q8TDM6 (Q8TDM6 617-713): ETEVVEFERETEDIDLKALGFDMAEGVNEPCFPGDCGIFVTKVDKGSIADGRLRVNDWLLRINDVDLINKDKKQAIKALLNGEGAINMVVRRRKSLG

FRMPD3, Q5JV73 = molecular target: FRMPD3, Q5JV73
Sequence of FRMPD3, Q5JV73 (Q5JV73 12-100): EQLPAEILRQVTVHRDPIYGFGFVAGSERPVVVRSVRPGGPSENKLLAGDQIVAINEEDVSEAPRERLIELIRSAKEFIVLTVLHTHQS

GOPC, Q9HD26 = molecular target: GOPC, Q9HD26
GRASP, Q7Z6J2 = molecular target: GRASP, Q7Z6J2
Sequence of GRASP, Q7Z6J2 (Q7Z6J2 96-193): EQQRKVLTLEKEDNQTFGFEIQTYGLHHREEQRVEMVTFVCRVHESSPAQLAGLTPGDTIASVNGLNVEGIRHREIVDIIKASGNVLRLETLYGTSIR

GRID2IP_1, A4D2P6 = molecular target: GRID2IP_1, A4D2P6
Sequence of GRID2IP_1, A4D2P6 (A4D2P6 1-87): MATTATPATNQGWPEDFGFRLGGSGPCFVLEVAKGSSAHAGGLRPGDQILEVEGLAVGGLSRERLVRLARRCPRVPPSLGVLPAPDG

IL16_4, Q14005 = molecular target: IL16_4, Q14005
Sequence of IL16_4, Q14005 (Q14005 1229-1329): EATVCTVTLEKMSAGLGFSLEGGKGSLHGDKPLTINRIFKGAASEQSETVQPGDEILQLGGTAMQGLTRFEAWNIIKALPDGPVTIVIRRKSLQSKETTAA

LIMK2, P53671 = molecular target: LIMK2, P53671
Sequence of LIMK2, P53671 (P53671 143-248): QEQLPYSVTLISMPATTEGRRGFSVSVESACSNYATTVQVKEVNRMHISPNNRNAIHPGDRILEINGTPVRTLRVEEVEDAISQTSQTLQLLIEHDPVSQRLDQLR

MAGI1_2, Q96QZ7 = molecular target: MAGI1_2, Q96QZ7
Sequence of MAGI1_2, Q96QZ7 (Q96QZ7 456-580): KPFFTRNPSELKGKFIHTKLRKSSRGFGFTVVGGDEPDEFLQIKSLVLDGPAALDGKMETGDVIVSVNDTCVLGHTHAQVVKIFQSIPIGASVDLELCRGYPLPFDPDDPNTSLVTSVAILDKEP

MAST2, Q6P0Q8 = molecular target: MAST2, Q6P0Q8
Sequence of MAST2, Q6P0Q8 (Q6P0Q8 1099-1202): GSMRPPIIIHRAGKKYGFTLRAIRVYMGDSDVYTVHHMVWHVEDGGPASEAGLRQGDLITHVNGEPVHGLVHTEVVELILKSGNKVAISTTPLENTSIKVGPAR

MPDZ_10, O75970 = molecular target: T4, MPDZ_10, O75970
T4 sequence (O75970 1624-1722, limits assumed, looked up): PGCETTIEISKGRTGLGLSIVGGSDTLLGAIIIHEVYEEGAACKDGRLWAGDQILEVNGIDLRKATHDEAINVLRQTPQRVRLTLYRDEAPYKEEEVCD

NHERF3_1, Q5T2W1 = molecular target: T5, NHERF3_1, Q5T2W1
T5 sequence (Q5T2W1 4-100, limits assumed, looked up): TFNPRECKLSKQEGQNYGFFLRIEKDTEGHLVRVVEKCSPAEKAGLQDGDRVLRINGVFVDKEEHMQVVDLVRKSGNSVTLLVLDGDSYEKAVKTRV

NHERF4_1, Q86UT5-2 = molecular target: NHERF4_1, Q86UT5-2
Sequence of NHERF4_1, Q86UT5-2 (Q86UT5 other isoform, or with tags, fused parts or gaps): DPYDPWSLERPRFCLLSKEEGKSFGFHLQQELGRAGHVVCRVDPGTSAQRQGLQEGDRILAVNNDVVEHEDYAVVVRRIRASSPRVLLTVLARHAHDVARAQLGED

PDZRN4_1, Q6ZMN7 = molecular target: PDZRN4_1, Q6ZMN7
Sequence of PDZRN4_1, Q6ZMN7 (Q6ZMN7 213-318): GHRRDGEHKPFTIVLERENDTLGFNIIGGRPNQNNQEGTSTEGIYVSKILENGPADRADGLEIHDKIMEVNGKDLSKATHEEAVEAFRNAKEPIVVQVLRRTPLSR

RHPN1, Q8TCX5 = molecular target: T6, RHPN1, Q8TCX5
T6 sequence (Q8TCX5 508-602, limits assumed, looked up): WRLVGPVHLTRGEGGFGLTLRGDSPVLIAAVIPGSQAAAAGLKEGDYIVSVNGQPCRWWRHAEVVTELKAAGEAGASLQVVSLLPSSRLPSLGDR

SCRIB_1, Q14160 = molecular target: SCRIB_1, Q14160
Sequence of SCRIB_1, Q14160 (Q14160 718-814): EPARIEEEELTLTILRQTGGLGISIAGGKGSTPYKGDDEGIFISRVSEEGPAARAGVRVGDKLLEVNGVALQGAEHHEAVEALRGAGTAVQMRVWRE

SHANK1, Q9Y566 = molecular target: T7, SHANK1, Q9Y566
T7 sequence (Q9Y566 658-767, limits assumed, looked up): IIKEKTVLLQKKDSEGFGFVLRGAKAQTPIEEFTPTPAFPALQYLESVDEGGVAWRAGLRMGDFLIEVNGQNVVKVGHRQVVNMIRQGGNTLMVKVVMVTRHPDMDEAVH

SNTA1, Q13424 = molecular target: T8, SNTA1, Q13424
T8 sequence (Q13424 82-180, limits assumed, looked up): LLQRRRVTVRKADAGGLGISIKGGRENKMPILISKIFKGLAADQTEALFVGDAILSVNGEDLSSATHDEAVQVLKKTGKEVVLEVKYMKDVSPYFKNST

SNTG1, Q9NSN8 = molecular target: T9, SNTG1, Q9NSN8
T9 sequence (Q9NSN8 52-150, limits assumed, looked up): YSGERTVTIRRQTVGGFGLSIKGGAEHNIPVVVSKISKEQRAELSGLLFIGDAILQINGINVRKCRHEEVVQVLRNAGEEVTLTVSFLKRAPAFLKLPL

SYNJ2BP, P57105 = molecular target: T10, SYNJ2BP, P57105
T10 sequence (P57105 8-110, limits assumed, looked up): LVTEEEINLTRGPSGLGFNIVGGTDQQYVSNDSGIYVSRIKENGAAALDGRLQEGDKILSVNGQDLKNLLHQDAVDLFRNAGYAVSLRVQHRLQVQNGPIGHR

TJP3_3, O95049 = molecular target: T11, TJP3_3, O95049
T11 sequence (O95049 375-456, limits assumed, looked up): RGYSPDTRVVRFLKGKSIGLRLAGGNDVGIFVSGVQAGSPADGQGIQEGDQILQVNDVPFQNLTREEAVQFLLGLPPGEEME

TX1BP3, O14907 = molecular target: T12, TX1BP3, O14907
T12 sequence (O14907 10-122, limits assumed, looked up): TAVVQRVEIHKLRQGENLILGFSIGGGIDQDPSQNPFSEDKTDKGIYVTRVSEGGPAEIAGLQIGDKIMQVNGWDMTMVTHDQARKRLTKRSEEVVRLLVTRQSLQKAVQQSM

PAPGQHTTQI [STK16, O75716]
pKd (APBA2_1, Q99767): below the threshold
pKd (ARHGEF12, Q9NZN5-2): 4.38
pKd (CASK, O14936): below the threshold
pKd (DLG3_1, Q92796): below the threshold
pKd (DLG3_2, Q92796): 4.11
pKd (DLG5_1, Q8TDM6): below the threshold
pKd (FRMPD3, Q5JV73): below the threshold
pKd (GOPC, Q9HD26): 3.77
pKd (GRASP, Q7Z6J2): 3.58
pKd (GRID2IP_1, A4D2P6): below the threshold
pKd (IL16_4, Q14005): below the threshold
pKd (LIMK2, P53671): below the threshold
pKd (MAGI1_2, Q96QZ7): below the threshold
pKd (MAST2, Q6P0Q8): 5.27
pKd (MPDZ_10, O75970): below the threshold
pKd (NHERF3_1, Q5T2W1): 4.26
pKd (NHERF4_1, Q86UT5-2): below the threshold
pKd (PDZRN4_1, Q6ZMN7): below the threshold
pKd (RHPN1, Q8TCX5): 4.35
pKd (SCRIB_1, Q14160): 3.84
pKd (SHANK1, Q9Y566): 3.75
pKd (SNTA1, Q13424): below the threshold
pKd (SNTG1, Q9NSN8): below the threshold
pKd (SYNJ2BP, P57105): 3.51
pKd (TJP3_3, O95049): below the threshold
pKd (TX1BP3, O14907): 4.12

DSATVRTYSC [PPFIA1, Q13136]
pKd (APBA2_1, Q99767): below the threshold
pKd (ARHGEF12, Q9NZN5-2): below the threshold
pKd (CASK, O14936): below the threshold
pKd (DLG3_1, Q92796): below the threshold
pKd (DLG3_2, Q92796): 4.08
pKd (DLG5_1, Q8TDM6): below the threshold
pKd (FRMPD3, Q5JV73): below the threshold
pKd (GOPC, Q9HD26): below the threshold
pKd (GRASP, Q7Z6J2): 4.31
pKd (GRID2IP_1, A4D2P6): below the threshold
pKd (IL16_4, Q14005): 3.54
pKd (LIMK2, P53671): below the threshold
pKd (MAGI1_2, Q96QZ7): below the threshold
pKd (MAST2, Q6P0Q8): 3.98
pKd (MPDZ_10, O75970): below the threshold
pKd (NHERF3_1, Q5T2W1): 3.77
pKd (NHERF4_1, Q86UT5-2): 3.98
pKd (PDZRN4_1, Q6ZMN7): below the threshold
pKd (RHPN1, Q8TCX5): below the threshold
pKd (SCRIB_1, Q14160): below the threshold
pKd (SHANK1, Q9Y566): below the threshold
pKd (SNTA1, Q13424): below the threshold
pKd (SNTG1, Q9NSN8): below the threshold
pKd (SYNJ2BP, P57105): below the threshold
pKd (TJP3_3, O95049): below the threshold
pKd (TX1BP3, O14907): below the threshold

PASAKGPLGV [CLDN19, Q8N6F1]
pKd (APBA2_1, Q99767): below the threshold
pKd (ARHGEF12, Q9NZN5-2): below the threshold
pKd (CASK, O14936): below the threshold
pKd (DLG3_1, Q92796): below the threshold
pKd (DLG3_2, Q92796): below the threshold
pKd (DLG5_1, Q8TDM6): below the threshold
pKd (FRMPD3, Q5JV73): below the threshold
pKd (GOPC, Q9HD26): below the threshold
pKd (GRASP, Q7Z6J2): below the threshold
pKd (GRID2IP_1, A4D2P6): below the threshold
pKd (IL16_4, Q14005): 3.55
pKd (LIMK2, P53671): below the threshold
pKd (MAGI1_2, Q96QZ7): below the threshold
pKd (MAST2, Q6P0Q8): below the threshold
pKd (MPDZ_10, O75970): below the threshold
pKd (NHERF3_1, Q5T2W1): below the threshold
pKd (NHERF4_1, Q86UT5-2): 3.49
pKd (PDZRN4_1, Q6ZMN7): below the threshold
pKd (RHPN1, Q8TCX5): below the threshold
pKd (SCRIB_1, Q14160): below the threshold
pKd (SHANK1, Q9Y566): below the threshold
pKd (SNTA1, Q13424): below the threshold
pKd (SNTG1, Q9NSN8): below the threshold
pKd (SYNJ2BP, P57105): below the threshold
pKd (TJP3_3, O95049): below the threshold
pKd (TX1BP3, O14907): below the threshold

QFTLRHWLKV [SLC6A3, Q01959]
pKd (APBA2_1, Q99767): 3.48
pKd (ARHGEF12, Q9NZN5-2): below the threshold
pKd (CASK, O14936): below the threshold
pKd (DLG3_1, Q92796): below the threshold
pKd (DLG3_2, Q92796): below the threshold
pKd (DLG5_1, Q8TDM6): below the threshold
pKd (FRMPD3, Q5JV73): below the threshold
pKd (GOPC, Q9HD26): 3.51
pKd (GRASP, Q7Z6J2): 3.8
pKd (GRID2IP_1, A4D2P6): below the threshold
pKd (IL16_4, Q14005): below the threshold
pKd (LIMK2, P53671): below the threshold
pKd (MAGI1_2, Q96QZ7): below the threshold
pKd (MAST2, Q6P0Q8): 4.82
pKd (MPDZ_10, O75970): below the threshold
pKd (NHERF3_1, Q5T2W1): 3.77
pKd (NHERF4_1, Q86UT5-2): below the threshold
pKd (PDZRN4_1, Q6ZMN7): below the threshold
pKd (RHPN1, Q8TCX5): below the threshold
pKd (SCRIB_1, Q14160): below the threshold
pKd (SHANK1, Q9Y566): below the threshold
pKd (SNTA1, Q13424): below the threshold
pKd (SNTG1, Q9NSN8): below the threshold
pKd (SYNJ2BP, P57105): below the threshold
pKd (TJP3_3, O95049): below the threshold
pKd (TX1BP3, O14907): below the threshold

RELVMRVTTV [MARCHF4, Q9P2E8]
pKd (APBA2_1, Q99767): below the threshold
pKd (ARHGEF12, Q9NZN5-2): 4.86
pKd (CASK, O14936): below the threshold
pKd (DLG3_1, Q92796): 4.38
pKd (DLG3_2, Q92796): 5.22
pKd (DLG5_1, Q8TDM6): below the threshold
pKd (FRMPD3, Q5JV73): below the threshold
pKd (GOPC, Q9HD26): 5.03
pKd (GRASP, Q7Z6J2): 4.63
pKd (GRID2IP_1, A4D2P6): below the threshold
pKd (IL16_4, Q14005): below the threshold
pKd (LIMK2, P53671): below the threshold
pKd (MAGI1_2, Q96QZ7): 4.81
pKd (MAST2, Q6P0Q8): 5.29
pKd (MPDZ_10, O75970): 4.35
pKd (NHERF3_1, Q5T2W1): below the threshold
pKd (NHERF4_1, Q86UT5-2): below the threshold
pKd (PDZRN4_1, Q6ZMN7): 3.88
pKd (RHPN1, Q8TCX5): 4.06
pKd (SCRIB_1, Q14160): 4.67
pKd (SHANK1, Q9Y566): 3.58
pKd (SNTA1, Q13424): 5.1
pKd (SNTG1, Q9NSN8): 4.95
pKd (SYNJ2BP, P57105): 4.82
pKd (TJP3_3, O95049): below the threshold
pKd (TX1BP3, O14907): 4.75
